From article PMC10196870, “Structural insights into the substrate recognition of serine palmitoyltransferase from Sphingobacterium multivorum” (The Journal of Biological Chemistry, 2023)

Target: the molecule itself
Test: crystal structure; crystals grown in Tris buffer, soaked in Tricine-buffered Tris-free solution without or with amino acids (L-Ser, L-Hse, Gly, L-Ala, L-Thr); space group P4(1)2(1)2, one molecule per asymmetric unit, dimer generated by crystallographic symmetry; 100 K

B1: Sphingobacterium multivorum serine palmitoyltransferase (enzyme, UniProt A7BFV6 1-399, looked up)
chain: MSKGKLGEKISQFKIVEELKAKGLYAYFRPIQSKQDTEVKIDGRRVLMFGSNSYLGLTTDTRIIKAAQDALEKYGTGCAGSRFLNGTLDIHVELEEKLSAYVGKEAAILFSTGFQSNLGPLSCLMGRNDYILLDERDHASIIDGSRLSFSKVIKYGHNNMEDLRAKLSRLPEDSAKLICTDGIFSMEGDIVNLPELTSIANEFDAAVMVDDAHSLGVIGHKGAGTASHFGLNDDVDLIMGTFSKSLASLGGFVAGDADVIDFLKHNARSVMFSASMTPASVASTLKALEIIQNEPEHIEKLWKNTDYAKAQLLDHGFDLGATESPILPIFIRSNEKTFWVTKMLQDDGVFVNPVVSPAVPAEESLIRFSLMATHTYDQIDEAIEKMVKVFKQAEVETLI
modifications: PLP-Lys244 internal aldimine (ligand-free form); in the amino acid complexes PLP forms an external aldimine with the amino acid
notes: serine palmitoyltransferase of Sphingobacterium multivorum, full length, 398 amino acid residues; the model holds Ser2 to Val395; no tag is mentioned; also called S. multivorum SPT; SPT; source: E. coli BL21 (DE3) pLysS, purified (DEAE, Butyl, second DEAE column chromatography, desalting)
binding result: binds
